The values that follow come from paper PMC11904002.

The target of the assay is T1, Signal peptide peptidase (SPP), human, with a C-terminal myc-tag (human), Q8TCT9.
T1 chain: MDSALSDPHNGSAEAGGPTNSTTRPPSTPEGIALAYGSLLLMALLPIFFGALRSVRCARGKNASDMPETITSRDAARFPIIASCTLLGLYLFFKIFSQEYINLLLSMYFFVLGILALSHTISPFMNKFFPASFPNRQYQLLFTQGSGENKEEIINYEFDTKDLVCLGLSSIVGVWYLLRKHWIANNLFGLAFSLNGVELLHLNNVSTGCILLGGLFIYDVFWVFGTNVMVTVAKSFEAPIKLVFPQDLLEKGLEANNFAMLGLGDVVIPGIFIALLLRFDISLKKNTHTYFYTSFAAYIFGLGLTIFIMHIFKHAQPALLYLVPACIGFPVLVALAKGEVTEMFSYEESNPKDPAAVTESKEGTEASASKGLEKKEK
The assay can be described thus: SDS-PAGE and Western blot of cell lysate; lysate of transfected HEK cells (50 mM Tris/HCl pH 7.4, 150 mM NaCl, 1% Triton X-100, 0.1% SDS); SDS-PAGE with tris-glycine buffer; SPP band at the size of a dimer. Conditions: remark: other sources report otherwise. (A western blot detects proteins with antibodies after separation by electrophoresis.)

B1: Signal peptide peptidase (SPP), human, with a C-terminal myc-tag, Q8TCT9-1 1-377 (enzyme)
chain: MDSALSDPHNGSAEAGGPTNSTTRPPSTPEGIALAYGSLLLMALLPIFFGALRSVRCARGKNASDMPETITSRDAARFPIIASCTLLGLYLFFKIFSQEYINLLLSMYFFVLGILALSHTISPFMNKFFPASFPNRQYQLLFTQGSGENKEEIINYEFDTKDLVCLGLSSIVGVWYLLRKHWIANNLFGLAFSLNGVELLHLNNVSTGCILLGGLFIYDVFWVFGTNVMVTVAKSFEAPIKLVFPQDLLEKGLEANNFAMLGLGDVVIPGIFIALLLRFDISLKKNTHTYFYTSFAAYIFGLGLTIFIMHIFKHAQPALLYLVPACIGFPVLVALAKGEVTEMFSYEESNPKDPAAVTESKEGTEASASKGLEKKEK
As a reminder, the stoichiometry N is the number of molecules, sites or subunits per partner or assembly. As to B1, the stoichiometry N was found to be 2.
